Test results reported in US8501695B2, “Tissue kallikrein for the treatment of diseases associated with amyloid protein” (DiaMedica, Inc., priority 2007, dated 2013).
Values joined by “and” are separate entries in the source; they are usually repeats but may differ in a detail not shown here. Equal entries are not always repeated.

Assay: Pharmacokinetic study of intranasal tissue kallikrein (125I-KLK1 tissue concentrations by gamma counting)
Type: in vivo
Settings: rat, 30 min. end point
Method: The purpose of this study was to quantify the amount of tissue kallikrein (KLK1) reaching the central nervous system and peripheral tissues after intranasal administration to anesthetized rats. At 30 min after KLK1 administration, animals were transcardially perfused with ice-cold saline followed by paraformaldehyde fixative and tissues were dissected. The amount of radiolabeled KLK1 in each tissue sample was quantified by gamma counting and tissue concentrations were calculated using tissue weight and gamma counting of standards of the dosing solutions
Adult male Sprague Dawley rats (n=10, mean 335.4 g±4.57 g SE) were used for this study. Animals were group housed in the Regions Hospital Animal Care Facility with free access to food and water. Animals were kept on a 12 h light cycle. All experimental procedures were approved by the Animal Care and Use Committee at Regions Hospital under IACUC protocol number 08-022.
Tissue kallikrein was sent to Perkin-Elmer for ^125I-labelling (Quote NEX-084, lot C1541583). Non-labeled KLK1 from Sigma (cat#K3627-1KU, lot 018K1441) was also used. Non-labeled KLK1 was dissolved in 1×PBS (10×PBS, Sigma, cat #P5493, lot 027K8405 diluted in sterile water). The average dose was 48.1 μL, 75 μCi, and 2.6 mg.
• a. Prior to anesthesia, each rat was weighed. • b. An anesthesia cocktail was prepared and full, half, and quarter anesthesia doses were calculated according to the animal's weight with a full dose containing 30 mg/kg ketamine, 6 mg/kg xylazine, and 1 mg/kg acepromazine. • c. A 1-cc syringe fitted with a 25 G or 27 G, ½ inch needle was assembled and a full dose was drawn into the syringe for injection. • d. Rats were restrained in a towel as follows. Rats were placed ventral side down in the middle of a hand towel. The towel was then wrapped around the head and shoulders to restrain. Wrapped animals remained ventral side down while the left hind leg was located. • e. The left hind leg was drawn to the side and the needle was inserted just beneath the skin (subcutaneous) above the thigh. After ensuring that the needle was placed subcutaneously (and not intramuscularly), full doses were injected. Rats were placed in holding cages and the injection time noted. Animals should be under within 5 min. • f. Anesthesia was monitored throughout the procedures by assessing reflexes using pinching of the hind paw or tail. If a reflex was present, a half or quarter dose booster was administered as necessary. • g. During drug administration, animals received a half dose booster roughly 20-25 min after initial dose. Intranasal Delivery of ^125I-KLK1 • a. Anesthetized rats were placed on their backs on a heating pad in a metal surgical tray. The heating pad was connected to a thermostat and was automatically regulated to maintain a 37° C. temperature based on continuous measurement from a rectal probe. • b. A 2″×2″ gauze pad was rolled tightly into a pillow, taped together, and under the neck to maintain a correct neck position horizontal with the counter. • c. A lead impregnated shield was placed between the surgical tray and the experimenter for protection against radiation. The dose solution, pipette, pipette tips, and waste receptacle were arranged behind the shield for easy access. • d. A 6 μL drop was loaded into the pipette behind the shield. • e. A cotton swab covered in parafilm was used to occlude one naris completely (the flat part of the swab was pushed gently against the naris to prevent airflow), while the 6 μL drop was expelled slowly from the pipette (held at a 45° angle from the rat's midline), forming a drop on the pipette tip. The drop was lowered onto the open naris to be inhaled. • f. After two minutes, the alternate naris was occluded and a 6 μL drop was administered in the same fashion. • g. A drop was administered as described above every two minutes to alternating nares until a total of 8 drops was delivered (4 to each naris) over 14 min. • h. […]

[1] = individual animal, listed as kallikrien

B1: tissue kallikrein: serine protease that cleaves kininogen into kallidin; polypeptide SEQ ID NO:1 (Sus scrofa kallikrein 1), KLK1 from Sigma (protein, listed as Sus scrofa)
chain: MWSLVMRLALSLAGTGAAPPIQSRIIGGRECEKDSHPWQVAIYHYSSFQCGGVLVDPKWVLTAAHCKNDNYQVWLGRHNLFENEVTAQFFGVTADFPHPGFNLSLLKNHTKADGKDYSHDLMLLRLQSPAKITDAVKVLELPTQEPELGSTCQASGWGSIEPGPDDFEFPDEIQCVELTLLQNTFCADAHPDKVTESMLCAGYLPGGKDTCMGDSGGPLICNGMWQGITSWGHTPCGSANKPSIYTKLIFYLDWINDTITENP
modifications: 125I label in one form
- concentration in Ventral Dura (Avg, outliers removed): 0.143 µM
- concentration in Amygdala [1]: 0.0135 µM and 0.0109 µM and 0.01416 µM and 0.0183 µM and 0.0121 µM and 0.0254 µM and 0.0152 µM and 0.0139 µM and 0.0246 µM and 0.0137 µM
- concentration in Anterior Olfactory Nucleus [1]: 0.0231 µM and 0.0151 µM and 0.024 µM and 0.0205 µM and 0.0193 µM and 0.0448 µM and 0.0292 µM and 0.0252 µM and 0.0456 µM and 0.0212 µM
- concentration in Anterior Trigeminal Nerve [1]: 0.2335 µM and 0.0751 µM and 0.0839 µM and 0.0835 µM and 0.1083 µM and 0.0688 µM and 0.1117 µM and 0.1392 µM and 0.0775 µM
- concentration in Axillary Nodes (2) [1]: 0.0446 µM and 0.0389 µM and 0.0588 µM and 0.0444 µM and 0.0439 µM and 0.0488 µM and 0.0286 µM and 0.0335 µM and 0.0477 µM and 0.034 µM
- concentration in Blood Sample [1]: 0.2924 µM and 0.2724 µM and 0.3277 µM and 0.2889 µM and 0.2756 µM and 0.2311 µM and 0.233 µM and 0.2519 µM and 0.2424 µM and 0.2684 µM
- concentration in Carotid Artery [1]: 0.1275 µM and 0.0559 µM and 0.1112 µM and 0.1032 µM and 0.1387 µM and 0.1751 µM and 0.0849 µM and 0.1156 µM and 0.1082 µM
- concentration in Cerebellum [1]: 0.0093 µM and 0.0106 µM and 0.01006 µM and 0.0132 µM and 0.0112 µM and 0.0122 µM and 0.0086 µM and 0.0147 µM and 0.0078 µM
- concentration in Cervical Nodes (2) [1]: 0.2144 µM and 0.0031 µM and 0.1163 µM and 0.0721 µM and 0.1005 µM and 0.1199 µM and 0.1037 µM and 0.196 µM and 0.1746 µM
- concentration in Circle of Willis & Basilar Artery [1]: 0.1907 µM and 0.0569 µM and 0.0444 µM and 0.1336 µM and 0.0874 µM and 0.1782 µM and 0.1155 µM and 0.0441 µM and 0.1341 µM and 0.0483 µM
- concentration in Dorsal Dura [1]: 0.116 µM and 0.0925 µM and 0.1182 µM and 0.1569 µM and 0.1168 µM and 0.131 µM and 0.1329 µM and 0.2425 µM and 0.0895 µM
- concentration in Esophagus [1]: 0.118 µM and 0.0669 µM and 0.1096 µM and 0.0877 µM and 0.0681 µM and 0.0409 µM and 0.0651 µM and 0.0854 µM and 0.1281 µM and 0.0824 µM
- concentration in Extra Cortex [1]: 0.0103 µM and 0.0113 µM and 0.0124 µM and 0.0133 µM and 0.0138 µM and 0.0172 µM and 0.0128 µM and 0.0166 µM and 0.0098 µM
- concentration in Extra Slice #1 [1]: 0.0171 µM and 0.0162 µM and 0.0194 µM and 0.0166 µM and 0.0169 µM and 0.0432 µM and 0.0311 µM and 0.0296 µM and 0.0227 µM
- concentration in Extra Slice #2 [1]: 0.0092 µM and 0.011 µM and 0.01233 µM and 0.017 µM and 0.0117 µM and 0.0285 µM and 0.0176 µM and 0.0173 µM and 0.027 µM and 0.0156 µM
- concentration in Extra Slice #3 [1]: 0.0088 µM and 0.0096 µM and 0.01143 µM and 0.0107 µM and 0.0099 µM and 0.0233 µM and 0.0172 µM and 0.0136 µM and 0.021 µM and 0.0138 µM
- concentration in Extra Slice #4 [1]: 0.0075 µM and 0.0086 µM and 0.0094 µM and 0.0099 µM and 0.0184 µM and 0.0147 µM and 0.0105 µM and 0.017 µM and 0.0118 µM
- concentration in Extra Slice #5 [1]: 0.0077 µM and 0.0076 µM and 0.0107 µM and 0.0092 µM and 0.0108 µM and 0.0192 µM and 0.0186 µM and 0.0097 µM and 0.0148 µM and 0.0099 µM
- concentration in Extra Slice #6 [1]: 0.0079 µM and 0.0081 µM and 0.0121 µM and 0.0105 µM and 0.0122 µM and 0.0167 µM and 0.0104 µM and 0.0148 µM and 0.0095 µM
- concentration in Frontal Cortex [1]: 0.012 µM and 0.0161 µM and 0.0158 µM and 0.0169 µM and 0.0174 µM and 0.0457 µM and 0.0277 µM and 0.0268 µM and 0.0389 µM and 0.022 µM
- concentration in Heart [1]: 0.0174 µM and 0.016 µM and 0.0219 µM and 0.0301 µM and 0.0127 µM and 0.0314 µM and 0.0137 µM and 0.0232 µM and 0.0228 µM and 0.037 µM
- concentration in Hippocampus [1]: 7.0 nM (2×) and 11.6 nM and 10.6 nM and 8.8 nM and 16.4 nM and 13.4 nM and 13.7 nM and 8.2 nM
- concentration in Hypothalamus [1]: 0.0171 µM and 0.0119 µM and 0.0211 µM and 0.0158 µM and 0.0174 µM and 0.0376 µM and 0.0288 µM and 0.0157 µM and 0.0389 µM and 0.0173 µM
- concentration in Kidney (L, tip) [1]: 0.179 µM and 0.2133 µM and 0.1875 µM and 0.115 µM and 0.0246 µM and 0.0355 µM and 0.1039 µM and 0.2404 µM and 0.2122 µM and 0.0369 µM
- concentration in Liver (R, superficial lobe) [1]: 0.0187 µM and 0.0371 µM and 0.0257 µM and 0.0266 µM and 0.0402 µM and 0.0261 µM and 0.0164 µM and 0.0161 µM and 0.0218 µM and 0.0288 µM
- concentration in Lower Cervical Spinal Cord [1]: 5.3 nM and 6.6 nM and 7.3 nM (2×) and 5.2 nM and 4.7 nM and 7.0 nM and 6.5 nM and 10.1 nM and 10.9 nM
- concentration in Lumbar Spinal Cord [1]: 5.1 nM and 4.9 nM and 5.8 nM and 4.7 nM and 5.0 nM and 5.35 nM and 4.2 nM (2×) and 5.6 nM and 4.6 nM
